From patent EP4413993A1 (Dompe' Farmaceutici S.P.A., dated 2024)
Where “and” joins values, the source holds several entries; their conditions need not be identical. Equal entries are not always repeated.

Molecular target: TrkB receptor on rat C6 glioma cells (rat, UniProt Q63604 32-821)
Test: cell-based or functional assay

TrkB receptor on rat C6 glioma cells, sequence (Q63604 32-821): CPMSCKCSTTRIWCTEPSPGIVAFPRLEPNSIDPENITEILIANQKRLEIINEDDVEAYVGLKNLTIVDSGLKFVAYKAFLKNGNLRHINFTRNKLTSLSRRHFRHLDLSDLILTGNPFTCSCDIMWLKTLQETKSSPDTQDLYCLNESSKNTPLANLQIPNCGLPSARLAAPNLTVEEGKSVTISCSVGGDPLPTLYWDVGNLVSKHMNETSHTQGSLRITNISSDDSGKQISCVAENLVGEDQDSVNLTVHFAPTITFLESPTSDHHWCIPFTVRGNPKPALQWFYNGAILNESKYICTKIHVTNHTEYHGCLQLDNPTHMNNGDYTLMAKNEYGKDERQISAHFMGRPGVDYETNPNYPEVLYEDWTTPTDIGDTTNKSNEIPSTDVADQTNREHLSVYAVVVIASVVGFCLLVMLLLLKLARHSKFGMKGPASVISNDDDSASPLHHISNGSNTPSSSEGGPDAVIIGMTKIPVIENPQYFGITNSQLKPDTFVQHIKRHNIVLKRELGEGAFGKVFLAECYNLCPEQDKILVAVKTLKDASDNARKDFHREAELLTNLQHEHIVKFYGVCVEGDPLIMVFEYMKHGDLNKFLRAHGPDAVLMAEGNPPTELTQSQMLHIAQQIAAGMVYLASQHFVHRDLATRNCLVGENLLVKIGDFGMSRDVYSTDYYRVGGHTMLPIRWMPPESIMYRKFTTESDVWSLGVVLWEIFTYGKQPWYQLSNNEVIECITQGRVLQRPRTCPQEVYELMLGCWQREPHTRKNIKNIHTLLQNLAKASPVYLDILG

- EC50, concentration of rhBDNF required to induce 50% proliferation of C6 cells (MTS assay, 48h): ~3 µg/mL and ~0.11 µM
B1: recombinant human brain-derived neurotrophic factor (BDNF) (ligand)
chain: HSDPARRGELSVCDSISEWVTAADKKTAVDMSGGTVTVLEKVPVSKGQLKQYFYETKCNPMGYTKEGCRGIDKRHWNSQCRTTQSYVRALTMDSKKRIGWRFIRIDTSCVCTLTIKRGR
